Data published in patent publication US20260184814A1, “BROADLY NE[…] INFLUENZA NEURAMINIDASE” (priority 2022, published 2026).

Legend:
[1] = molecular target: human FcγRIIIb (human) (UniProt O75015); assay: MSD [cont'd]
[2] = molecular target: human FcγRIIa (H131 allele) (human) (UniProt P12318); assay: MSD [cont'd]
[3] = molecular target: human FcγRIIIa (F158 allele) (human) (UniProt P08637); assay: MSD [cont'd]
[4] = molecular target: human FcγRIIIa (V158 allele) (human) (UniProt P08637); assay: MSD [cont'd]
[5] = molecular target: human FcγRIIa (R131 allele) (human) (UniProt P12318); assay: MSD [cont'd]
[6] = molecular target: human FcγRIIb (human) (UniProt P31994); assay: MSD [cont'd]
[7] = molecular target: human FcRn (human) (UniProt P55899); assay: MSD, pH 6 [cont'd]
[8] = molecular target: human C1q (human) (UniProt P02745); assay: MSD [cont'd]
[9] = molecular target: human FcγRIIa (H131 allele) (human) (UniProt P12318); assay: MSD
[10] = molecular target: human FcγRIIa (R131 allele) (human) (UniProt P12318); assay: MSD
[11] = molecular target: human FcγRIIb (human) (UniProt P31994); assay: MSD
[12] = molecular target: human FcγRIIIa (F158 allele) (human) (UniProt P08637); assay: MSD electrochemiluminescence binding assay; column IIIA_F
[13] = molecular target: human FcγRIIIb (human) (UniProt O75015); assay: MSD electrochemiluminescence binding assay; column IIIB
[14] = molecular target: human FcRn (human) (UniProt P55899); assay: MSD electrochemiluminescence binding assay; column FcRn
[15] = molecular target: human FcγRIIa (H131 allele) (human) (UniProt P12318); assay: MSD electrochemiluminescence binding assay; column IIA_H
[16] = molecular target: human FcγRIIIa (V158 allele) (human) (UniProt P08637); assay: MSD electrochemiluminescence binding assay; column IIIA_V
[17] = molecular target: human FcγRIIb (human) (UniProt P31994); assay: MSD electrochemiluminescence binding assay; column IIB
[18] = molecular target: human FcγRIIa (R131 allele) (human) (UniProt P12318); assay: MSD electrochemiluminescence binding assay; column IIA_R
[19] = molecular target: human FcγRIIIa (F158 allele) (human) (UniProt P08637)
[20] = molecular target: human FcγRIIIa (V158 allele) (human) (UniProt P08637)
[21] = molecular target: human FcRn (human) (UniProt P55899); assay: MSD [cont'd]
[22] = molecular target: human FcγRIIIb (human) (UniProt O75015); assay: MSD
[23] = molecular target: human FcγRIIIa (F158 allele) (human) (UniProt P08637); assay: MSD
[24] = molecular target: human FcγRIIIa (V158 allele) (human) (UniProt P08637); assay: MSD

human FcγRIIIb (human), sequence (O75015 17-200 limits assumed): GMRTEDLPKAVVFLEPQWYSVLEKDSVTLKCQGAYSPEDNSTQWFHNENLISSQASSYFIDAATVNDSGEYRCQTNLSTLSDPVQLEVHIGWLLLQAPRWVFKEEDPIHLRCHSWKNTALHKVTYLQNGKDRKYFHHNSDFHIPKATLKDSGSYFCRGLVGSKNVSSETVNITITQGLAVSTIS
human FcRn (human), sequence (P55899 24-297 limits assumed, chain 1 of 2): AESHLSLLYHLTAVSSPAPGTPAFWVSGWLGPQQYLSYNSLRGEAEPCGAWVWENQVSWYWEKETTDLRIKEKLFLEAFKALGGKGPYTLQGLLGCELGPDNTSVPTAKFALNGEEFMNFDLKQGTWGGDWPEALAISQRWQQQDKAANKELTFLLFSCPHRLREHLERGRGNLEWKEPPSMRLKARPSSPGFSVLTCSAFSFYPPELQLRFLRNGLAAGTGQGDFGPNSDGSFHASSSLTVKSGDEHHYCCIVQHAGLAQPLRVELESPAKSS
human FcRn (human), sequence (chain, as listed by the source limits assumed, chain 2 of 2): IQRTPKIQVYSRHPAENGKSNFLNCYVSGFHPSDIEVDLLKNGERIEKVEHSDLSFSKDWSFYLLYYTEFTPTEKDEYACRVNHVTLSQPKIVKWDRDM
human FcγRIIb (human), sequence (P31994 43-217 limits assumed): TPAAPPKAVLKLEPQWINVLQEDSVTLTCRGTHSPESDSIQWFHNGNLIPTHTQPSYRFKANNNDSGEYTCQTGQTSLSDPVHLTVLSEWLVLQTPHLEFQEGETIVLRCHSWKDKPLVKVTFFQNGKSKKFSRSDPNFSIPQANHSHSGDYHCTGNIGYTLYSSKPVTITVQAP
human FcγRIIIa (F158 allele) (human), sequence (P08637 17-208 limits assumed): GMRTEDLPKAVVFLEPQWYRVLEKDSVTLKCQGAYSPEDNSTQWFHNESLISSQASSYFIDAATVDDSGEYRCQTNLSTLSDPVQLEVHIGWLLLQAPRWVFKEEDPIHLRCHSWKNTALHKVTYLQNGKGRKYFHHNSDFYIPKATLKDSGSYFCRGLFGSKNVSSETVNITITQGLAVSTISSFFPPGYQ
human FcγRIIIa (V158 allele) (human), sequence (P08637 17-208 F176V limits assumed): as the sequence (P08637 17-208 limits assumed) above, with F160V counted along it
human C1q (human), sequence (P02745 23-245 limits assumed, chain 1 of 3): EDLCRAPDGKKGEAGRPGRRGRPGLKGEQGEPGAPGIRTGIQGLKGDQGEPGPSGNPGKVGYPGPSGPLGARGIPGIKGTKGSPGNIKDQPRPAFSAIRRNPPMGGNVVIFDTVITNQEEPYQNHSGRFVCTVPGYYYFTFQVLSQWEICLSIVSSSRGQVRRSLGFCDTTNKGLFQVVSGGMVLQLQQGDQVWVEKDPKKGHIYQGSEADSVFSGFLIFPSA
human C1q (human), sequence (P02746 28-253 limits assumed, chain 2 of 3, further chain): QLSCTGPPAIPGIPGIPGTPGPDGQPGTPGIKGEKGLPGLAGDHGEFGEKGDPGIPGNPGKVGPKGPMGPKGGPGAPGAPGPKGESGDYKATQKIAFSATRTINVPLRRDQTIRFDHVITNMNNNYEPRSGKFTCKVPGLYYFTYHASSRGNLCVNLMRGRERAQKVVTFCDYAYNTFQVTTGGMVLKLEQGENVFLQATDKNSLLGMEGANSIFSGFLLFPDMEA
human C1q (human), sequence (P02747 29-245 limits assumed, chain 3 of 3, further chain): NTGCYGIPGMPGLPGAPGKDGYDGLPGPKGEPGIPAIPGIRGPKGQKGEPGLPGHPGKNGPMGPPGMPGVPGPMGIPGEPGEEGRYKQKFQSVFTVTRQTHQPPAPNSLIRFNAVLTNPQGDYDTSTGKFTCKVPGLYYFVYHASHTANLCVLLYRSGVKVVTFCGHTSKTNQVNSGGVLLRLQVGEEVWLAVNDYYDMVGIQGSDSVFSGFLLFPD
human FcγRIIa (R131 allele) (human), sequence (P12318 34-218 H167R limits assumed): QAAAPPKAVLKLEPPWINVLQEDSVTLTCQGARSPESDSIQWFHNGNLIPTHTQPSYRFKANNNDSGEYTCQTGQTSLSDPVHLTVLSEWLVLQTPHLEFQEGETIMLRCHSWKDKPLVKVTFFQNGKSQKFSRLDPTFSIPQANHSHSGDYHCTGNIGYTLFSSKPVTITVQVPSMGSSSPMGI
human FcγRIIa (H131 allele) (human), sequence (P12318 34-218 limits assumed): as the sequence (P12318 34-218 H167R limits assumed) above, with R134H counted along it

Substance | fold to wt-fucose [1] [fold] | fold to wt-fucose [2] [fold] | fold to wt-fucose [3] [fold] | fold to wt-fucose [4] [fold] | fold to wt-fucose [5] [fold] | fold to wt-fucose [6] [fold] | fold-change to WT Fc [7] [fold] | fold-change to WT Fc [8] [fold] | fold-change to WT Fc [3] [fold] | fold-change to WT Fc [4] [fold] | fold-change to WT Fc [9] [fold] | fold-change to WT Fc [10] [fold] | fold-change to WT Fc [11] [fold] | other results
A330L_I332E-afuc (antibody) | 37.4 | 0.42 | 191 | 37.8 | 0.53 | 0.61 | – | – | – | – | – | – | – | –
A431G (antibody) | – | – | – | – | – | – | 0.916 | 0.824 | 1.23 | 1.61 | 1.76 | 1.38 | 1.5 | –
C220P (antibody) | – | – | – | – | – | – | 0.991 | 0.761 | 0.99 | 1.33 | 1.17 | 1.04 | 1.21 | –
G236A_A330L_I332E (antibody) | – | – | – | – | – | – | 0.937 | -0.004 | – | – | 3.6 | – | 0.605 | –
G236A_E272Y_S298N (antibody) | – | – | – | – | – | – | – | – | – | – | – | – | – | fold-change in binding vs wild-type IgG1 [12]: 0.31; fold-change in binding vs wild-type IgG1 [13]: 0.62; fold-change in binding vs wild-type IgG1 [14]: 0.98; fold-change in binding vs wild-type IgG1 [15]: 0.63; fold-change in binding vs wild-type IgG1 [16]: 0.06; fold-change in binding vs wild-type IgG1 [17]: 0.19; fold-change in binding vs wild-type IgG1 [18]: 0.38
G236A_K334A_Q295E-afuc (antibody) | 1.62 | 5.32 | 27.5 | 7.93 | 3.75 | 0.55 | – | – | – | – | – | – | – | FcγR reporter signaling, fold to wt-fucose [cont'd] [19]: 12.7 fold; FcγR reporter signaling, fold to wt-fucose [cont'd] [20]: 5.54 fold; fold to wt-fucose [21]: 1.11 fold
G236A_L328V_Q295E-afuc (antibody) | – | – | – | – | – | – | – | – | – | – | – | – | – | fold-change (reference not given) [22]: 2.4 fold; fold-change (reference not given) [9]: 6.7 fold; fold-change (reference not given) [23]: 11.8 fold; fold-change (reference not given) [24]: 7.4 fold; fold-change (reference not given) [10]: 9.6 fold
G236A_P230A_Q295E-afuc (antibody) | 1.8 | 8.94 | 26.7 | 10.8 | 6.04 | 0.67 | – | – | – | – | – | – | – | FcγR reporter signaling, fold to wt-fucose [cont'd] [19]: 10.9 fold; FcγR reporter signaling, fold to wt-fucose [cont'd] [20]: 5.54 fold; fold to wt-fucose [21]: 1.02 fold
G236A_Q295E_S298N (antibody) | – | – | – | – | – | – | – | – | – | – | – | – | – | fold-change in binding vs wild-type IgG1 [12]: 0.35; fold-change in binding vs wild-type IgG1 [13]: 0.76; fold-change in binding vs wild-type IgG1 [14]: 0.93; fold-change in binding vs wild-type IgG1 [15]: 1.82; fold-change in binding vs wild-type IgG1 [16]: 0.07; fold-change in binding vs wild-type IgG1 [17]: 0.23; fold-change in binding vs wild-type IgG1 [18]: 0.65
G236A_R292P-afuc (antibody) | 1.15 | 3.05 | 5.83 | 3.37 | 1.04 | 0.51 | – | – | – | – | – | – | – | FcγR reporter signaling, fold to wt-fucose [cont'd] [19]: 3.34 fold; FcγR reporter signaling, fold to wt-fucose [cont'd] [20]: 2.18 fold; fold to wt-fucose [21]: 0.73 fold
G236A_R292P_A431G (antibody) | – | – | – | – | – | – | 0.674 | 0.1 | 0.569 | 0.394 | 5.21 | 0.939 | 0.511 | –
G236A_R292P_G446E (antibody) | – | – | – | – | – | – | 0.851 | 0.099 | 0.552 | 0.415 | 4.54 | 0.986 | 0.512 | –
G236A_R292P_Y300L-afuc (antibody) | – | – | – | – | – | – | – | – | – | – | – | – | – | fold-change (reference not given) [22]: 1.8 fold; fold-change (reference not given) [9]: 11.2 fold; fold-change (reference not given) [23]: 19.7 fold; fold-change (reference not given) [24]: 9.1 fold; fold-change (reference not given) [10]: 2.2 fold
G236A_Y300L-afuc (antibody) | 2.55 | 14.9 | 30.1 | 13.7 | 3.95 | 0.93 | – | – | – | – | – | – | – | FcγR reporter signaling, fold to wt-fucose [cont'd] [20]: 3.49 fold; fold to wt-fucose [21]: 0.92 fold; fold-change (reference not given) [22]: 2.6 fold; fold-change (reference not given) [9]: 14.9 fold; fold-change (reference not given) [23]: 30.1 fold; fold-change (reference not given) [24]: 13.7 fold; fold-change (reference not given) [10]: 4 fold; fold-change (reference not given) [11]: 0.9 fold
G236L (antibody) | – | – | – | – | – | – | 0.949 | 1.48 | 0.345 | 0.083 | 0.435 | 1.42 | 0.395 | –
G236S-afuc (antibody) | 1.37 | 7.37 | 10.6 | 4.63 | 4.39 | 1.08 | – | – | – | – | – | – | – | FcγR reporter signaling, fold to wt-fucose [cont'd] [20]: 2.86 fold; fold to wt-fucose [21]: 0.85 fold
G236S_G420V_G446E_L309T-afuc (antibody) | 0.86 | 3.62 | 3.35 | 1.99 | 1.7 | 0.44 | – | – | – | – | – | – | – | FcγR reporter signaling, fold to wt-fucose [cont'd] [19]: 4.41 fold; FcγR reporter signaling, fold to wt-fucose [cont'd] [20]: 4 fold; fold to wt-fucose [21]: 0.77 fold
G236S_R292P_Y300L-afuc (antibody) | 1.04 | 8.13 | 5.47 | 3.17 | 1.5 | 0.72 | – | – | – | – | – | – | – | FcγR reporter signaling, fold to wt-fucose [cont'd] [19]: 6.54 fold; FcγR reporter signaling, fold to wt-fucose [cont'd] [20]: 2.87 fold; fold to wt-fucose [21]: 0.8 fold
G446E (antibody) | – | – | – | – | – | – | 1.06 | 0.84 | 1.1 | 1.42 | 1.11 | 1.05 | 1.17 | –
K334A_Q295E_S298N (antibody) | – | – | – | – | – | – | – | – | – | – | – | – | – | fold-change in binding vs wild-type IgG1 [12]: 0.37; fold-change in binding vs wild-type IgG1 [13]: 0.93; fold-change in binding vs wild-type IgG1 [14]: 0.91; fold-change in binding vs wild-type IgG1 [15]: 0.22; fold-change in binding vs wild-type IgG1 [16]: 0.09; fold-change in binding vs wild-type IgG1 [17]: 0.47; fold-change in binding vs wild-type IgG1 [18]: 0.28
L234D_G236D_K326E (antibody) | – | – | – | – | – | – | – | – | – | – | – | – | – | fold-change in binding vs wild-type IgG1 [12]: 0.35; fold-change in binding vs wild-type IgG1 [13]: 0.6; fold-change in binding vs wild-type IgG1 [14]: 0.83; fold-change in binding vs wild-type IgG1 [15]: 0.14; fold-change in binding vs wild-type IgG1 [16]: 0.05; fold-change in binding vs wild-type IgG1 [17]: 0.28; fold-change in binding vs wild-type IgG1 [18]: 0.3
L234D_V264R_K326E (antibody) | – | – | – | – | – | – | – | – | – | – | – | – | – | fold-change in binding vs wild-type IgG1 [12]: 0.27; fold-change in binding vs wild-type IgG1 [13]: 0.6; fold-change in binding vs wild-type IgG1 [14]: 0.83; fold-change in binding vs wild-type IgG1 [15]: 0.14; fold-change in binding vs wild-type IgG1 [16]: 0.05; fold-change in binding vs wild-type IgG1 [17]: 0.5; fold-change in binding vs wild-type IgG1 [18]: 0.25
L328V_Q295E_S298N (antibody) | – | – | – | – | – | – | – | – | – | – | – | – | – | fold-change in binding vs wild-type IgG1 [12]: 0.28; fold-change in binding vs wild-type IgG1 [13]: 0.79; fold-change in binding vs wild-type IgG1 [14]: 1.02; fold-change in binding vs wild-type IgG1 [15]: 0.26; fold-change in binding vs wild-type IgG1 [16]: 0.08; fold-change in binding vs wild-type IgG1 [17]: 0.32; fold-change in binding vs wild-type IgG1 [18]: 0.33
P245A_Q295E_S298N (antibody) | – | – | – | – | – | – | – | – | – | – | – | – | – | fold-change in binding vs wild-type IgG1 [12]: 0.34; fold-change in binding vs wild-type IgG1 [13]: 0.89; fold-change in binding vs wild-type IgG1 [14]: 0.85; fold-change in binding vs wild-type IgG1 [15]: 0.28; fold-change in binding vs wild-type IgG1 [16]: 0.1; fold-change in binding vs wild-type IgG1 [17]: 0.31; fold-change in binding vs wild-type IgG1 [18]: 0.3
R292P (antibody) | – | – | – | – | – | – | 0.898 | 0.549 | 0.79 | 0.917 | 0.577 | 0.454 | 0.541 | fold-change vs wt [2]: 0.58 fold; fold-change vs wt [5]: 0.45 fold; fold-change vs wt [6]: 0.54 fold
R292P_G446E (antibody) | – | – | – | – | – | – | 0.884 | 0.391 | 0.779 | 0.916 | 0.628 | 0.45 | 0.562 | –
